From paper PMC4344327, “Region-Specific Activation of oskar mRNA Translation by Inhibition of Bruno-Mediated Repression” (PLoS Genetics, 2015)

T1: GST::Bru (full-length Bruno fused to GST) (Drosophila, UniProt O02374 1-604)
T1 construct: Bruno (Bru; encoded by the aret gene), Drosophila; full-length bru cDNA subcloned into pGEX-2TK; Vector pGEX-2TK; source: E. coli CodonPlus, extract, immobilized on Glutathione Sepharose 4B
T1 sequence (looked up): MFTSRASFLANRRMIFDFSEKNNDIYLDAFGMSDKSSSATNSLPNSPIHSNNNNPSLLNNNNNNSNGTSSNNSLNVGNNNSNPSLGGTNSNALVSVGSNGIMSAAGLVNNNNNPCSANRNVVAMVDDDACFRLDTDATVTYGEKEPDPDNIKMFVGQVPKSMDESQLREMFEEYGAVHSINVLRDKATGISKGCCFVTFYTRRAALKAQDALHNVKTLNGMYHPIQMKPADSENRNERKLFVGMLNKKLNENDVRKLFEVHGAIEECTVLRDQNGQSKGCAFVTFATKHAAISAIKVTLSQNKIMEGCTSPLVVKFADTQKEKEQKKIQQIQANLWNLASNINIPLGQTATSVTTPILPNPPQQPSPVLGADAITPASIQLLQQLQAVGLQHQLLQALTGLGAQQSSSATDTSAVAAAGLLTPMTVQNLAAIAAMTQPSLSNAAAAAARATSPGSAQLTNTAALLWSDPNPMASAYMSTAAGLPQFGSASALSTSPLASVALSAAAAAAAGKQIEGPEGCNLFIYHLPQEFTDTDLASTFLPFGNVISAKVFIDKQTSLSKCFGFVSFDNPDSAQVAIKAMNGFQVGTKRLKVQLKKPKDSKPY

B1: His6::Bru Δ334–416 (natural protein, Drosophila, UniProt O02374 1-604, looked up)
chain: MFTSRASFLANRRMIFDFSEKNNDIYLDAFGMSDKSSSATNSLPNSPIHSNNNNPSLLNNNNNNSNGTSSNNSLNVGNNNSNPSLGGTNSNALVSVGSNGIMSAAGLVNNNNNPCSANRNVVAMVDDDACFRLDTDATVTYGEKEPDPDNIKMFVGQVPKSMDESQLREMFEEYGAVHSINVLRDKATGISKGCCFVTFYTRRAALKAQDALHNVKTLNGMYHPIQMKPADSENRNERKLFVGMLNKKLNENDVRKLFEVHGAIEECTVLRDQNGQSKGCAFVTFATKHAAISAIKVTLSQNKIMEGCTSPLVVKFADTQKEKEQKKIQQIQAAAGLLTPMTVQNLAAIAAMTQPSLSNAAAAAARATSPGSAQLTNTAALLWSDPNPMASAYMSTAAGLPQFGSASALSTSPLASVALSAAAAAAAGKQIEGPEGCNLFIYHLPQEFTDTDLASTFLPFGNVISAKVFIDKQTSLSKCFGFVSFDNPDSAQVAIKAMNGFQVGTKRLKVQLKKPKDSKPY
notes: also called Bru lacking most of the linker domain between RRMs 2 and 3; source: E. coli, purified (Ni-NTA); not shown: His6, N-terminal, kept
B2: His6::Bru (full-length Bruno, Bru+) (natural protein, Drosophila, UniProt O02374 1-604, looked up)
chain: T1 sequence (looked up)
notes: Bruno (Bru; encoded by the aret gene), Drosophila; full-length Bru in pET-15b; Vector pET-15b; The tethered transgene proteins carry RRM2/RRM3 point mutations; source: E. coli, purified (Ni-NTA); not shown: His6, N-terminal, kept
B3: His6::Bru 1–146 (isolated amino-terminal domain) (domain or fragment, Drosophila, UniProt O02374 1-146, looked up)
chain: MFTSRASFLANRRMIFDFSEKNNDIYLDAFGMSDKSSSATNSLPNSPIHSNNNNPSLLNNNNNNSNGTSSNNSLNVGNNNSNPSLGGTNSNALVSVGSNGIMSAAGLVNNNNNPCSANRNVVAMVDDDACFRLDTDATVTYGEKEP
notes: also called Bru amino-terminal domain; source: E. coli, purified (Ni-NTA); not shown: His6, N-terminal, kept

biological target: T1, GST::Bru (full-length Bruno fused to …); experiment: pull-down; GST::Bru, GST::Cup or GST immobilized on Glutathione Sepharose 4B from E. coli extract and washed; ~100 ng N-terminally His6-tagged Bru protein in 80 μl binding buffer (50mM Tris-Cl pH7.5, 150mM NaCl, 10% glycerol, 1mM DTT, 0.1% IGEPAL-CA-630), 2–3 hr at room temperature; Western blot with anti-His antibody; settings: both partners purified

Binding result, binds:
B1, B2, B3
